Test results from paper PMC8315899 (Nature structural & molecular biology, 2021).

Molecular target: the molecule itself
Assay: cryo-EM structure

B1: STRN3 (striatin 3), recombinant (natural protein, human, UniProt Q13033-2 1-713, looked up)
chain: MDELAGGGGGGPGMAAPPRQQQGPGGNLGLSPGGNGAAGGGGPPASEGAGPAAGPELSRPQQYTIPGILHYIQHEWARFEMERAHWEVERAELQARIAFLQGERKGQENLKKDLVRRIKMLEYALKQERAKYHKLKYGTELNQGDLKMPTFESEETKDTEAPTAPQNSQLTWKQGRQLLRQYLQEVGYTDTILDVRSQRVRSLLGLSNSEPNGSVETKNLEQILNGGESPKQKGQEIKRSSGDVLETFNFLENADDSDEDEENDMIEGIPEGKDKHRMNKHKIGNEGLAADLTDDPDTEEALKEFDFLVTAEDGEGAGEARSSGDGTEWAEPITFPSGGGKSFIMGSDDVLLSVLGLGDLADLTVTNDADYSYDLPANKDAFRKTWNPKYTLRSHFDGVRALAFHPVEPVLVTASEDHTLKLWNLQKTVPAKKSASLDVEPIYTFRAHIGPVLSLAISSNGEQCFSGGIDATIQWWNMPSPSVDPYDTYEPNVLAGTLVGHTDAVWGLAYSGIKNQLLSCSADGTVRLWNPQEKLPCICTYNGDKKHGIPTSVDFIGCDPAHMVTSFNTGSAVIYDLETSQSLVILSSQVDSGLQSNNHINRVVSHPTLPVTITAHEDRHIKFFDNKTGKMIHSMVAHLDAVTSLAVDPNGIYLMSGSHDCSIRLWNLDSKTCVQEITAHRKKLDESIYDVAFHSSKAYIASAGADALAKVFV
stoichiometry N: 4
